Drawing on the supplement of paper PMC10567573, this text covers protein stability index for 94 variants.

First the molecules themselves.
B1: RAB22A (parent)
chain: FVEDSFDPNINPTIGASFMTKTVQ
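Also: lentivirally expressed fusions sorted by FACS into six bins by GFP to DsRed ratio, PSI derived from sequencing read proportions per bin multiplied by bin number.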

In this data set the parent is B1. The experiment in a line: protein stability index of a GFP-peptide fusion (GPS, HEK-293T) (PSI 1-6); higher = more stable. As to conditions: c terminus: a fixed tail appended.
For the variant FVEDSFDPNINPTEGASFMTKTVQ, the protein stability index worked out at 3.21. For FVEDSFDPNINPTMGASFMTKTVQ, the protein stability index was 2.55. In the case of FVEDSFDPNINPTDGASFMTKTVQ, the protein stability index was 3.19. FVEDSFDPNINPTHGASFMTKTVQ: the protein stability index was determined as 2.87. As to FVEDSFDPNINPTKGASFMTKTVQ, the protein stability index was found to be 2.29. On to FVEDSFDPNINPTNGASFMTKTVQ, for which the protein stability index amounted to 2.81.

In the case of FVEDSFDPNINPTFGASFMTKTVQ, the protein stability index is 2.05. Consider FVEDSFDPNINPTGGASFMTKTVQ, for which the protein stability index worked out at 2.59. The figure for FVEDSFDPNINPTLGASFMTKTVQ is 2.14. For the variant FVEDSFDPNINPTCGASFMTKTVQ, the protein stability index turned out to be 2.01.

For the variant FVEDSFDPNINPTAGASFMTKTVQ, the protein stability index worked out at 2.07. For the variant FVEDSFDPNINPVIGASFMTKTVQ, the protein stability index was found to be 2.29. As for FVEDSFDPNINPCIGASFMTKTVQ, the protein stability index turned out to be 1.79.

In the case of FVEDSFDPNINPNIGASFMTKTVQ, the protein stability index is 2.19.

Take FVEDSFDPNINPFIGASFMTKTVQ: the protein stability index stood at 1.59.

On to FVEDSFDPNINPMIGASFMTKTVQ, for which the protein stability index was found to be 1.91. The same measure for FVEDSFDPNINPWIGASFMTKTVQ: 3.05. FVEDSFDPNINPPIGASFMTKTVQ: the protein stability index was found to be 2.67. The figure for FVEDSFDPNINPQIGASFMTKTVQ is 2.44; for FVEDSFDPNINPKIGASFMTKTVQ it is 2.29; for FVEDSFDPNINPAIGASFMTKTVQ it is 2.39. As to FVEDSFDPNINPYIGASFMTKTVQ, the protein stability index stood at 1.73.

On to FVEDSFDPNINPDIGASFMTKTVQ, for which the protein stability index amounted to 2.71.

With FVEDSFDPNINPLIGASFMTKTVQ, the protein stability index came out at 2.21. As to FVEDSFDPNINPSIGASFMTKTVQ, the protein stability index came out at 2.31. The figure for FVEDSFDPNINPGIGASFMTKTVQ is 2.15.

Take FVEDSFDPNINPIIGASFMTKTVQ: the protein stability index was determined as 1.75.

Take FVEDSFDPNINPEIGASFMTKTVQ: the protein stability index was 2.52.

In the case of FVEDSFDPNINPRIGASFMTKTVQ, the protein stability index was found to be 1.93. Turning to FVEDSFDPNINPHIGASFMTKTVQ, the protein stability index was determined as 2.31. On to FVEDSWDPNINPTIGASFMTKTVQ, for which the protein stability index was 1.76. As for FVEDSADPNINPTIGASFMTKTVQ, the protein stability index came out at 2.83. The same measure for FVEDSNDPNINPTIGASFMTKTVQ: 2.9; for FVEDSDDPNINPTIGASFMTKTVQ: 3.85. In the case of FVEDSMDPNINPTIGASFMTKTVQ, the protein stability index turned out to be 2.69. On to FVEDSYDPNINPTIGASFMTKTVQ, for which the protein stability index was 2.02.

Take FVEDSTDPNINPTIGASFMTKTVQ: the protein stability index was 2.89. The same measure for FVEDSHDPNINPTIGASFMTKTVQ: 2.58; for FVEDSSDPNINPTIGASFMTKTVQ: 2.99; for FVEDSLDPNINPTIGASFMTKTVQ: 2.56. As for FVEDSEDPNINPTIGASFMTKTVQ, the protein stability index came out at 4.08. For the variant FVEDSKDPNINPTIGASFMTKTVQ, the protein stability index amounted to 2.71. The figure for FVEDSVDPNINPTIGASFMTKTVQ is 3.31. Consider FVEDSIDPNINPTIGASFMTKTVQ, for which the protein stability index is 2.56. For the variant FVEDSQDPNINPTIGASFMTKTVQ, the protein stability index was found to be 2.88.

Consider FVEDSRDPNINPTIGASFMTKTVQ, for which the protein stability index was 2.36. The same measure for FVEDSPDPNINPTIGASFMTKTVQ: 2.74; for FVEDSGDPNINPTIGASFMTKTVQ: 3.27; for FVEDSCDPNINPTIGASFMTKTVQ: 2.67.

Regarding FVEDSFQPNINPTIGASFMTKTVQ, the protein stability index stood at 1.98. With FVEDSFSPNINPTIGASFMTKTVQ, the protein stability index was found to be 1.92. With FVEDSFHPNINPTIGASFMTKTVQ, the protein stability index came to 2. For the variant FVEDSFNPNINPTIGASFMTKTVQ, the protein stability index came out at 1.61. FVEDSFFPNINPTIGASFMTKTVQ: the protein stability index is 2.75. With FVEDSFMPNINPTIGASFMTKTVQ, the protein stability index was 2.33. Regarding FVEDSFYPNINPTIGASFMTKTVQ, the protein stability index worked out at 1.67. The figure for FVEDSFTPNINPTIGASFMTKTVQ is 2.15; for FVEDSFCPNINPTIGASFMTKTVQ it is 1.98. FVEDSFWPNINPTIGASFMTKTVQ: the protein stability index amounted to 3.07. As for FVEDSFGPNINPTIGASFMTKTVQ, the protein stability index came out at 1.79.

On to FVEDSFLPNINPTIGASFMTKTVQ, for which the protein stability index is 2.15. FVEDSFAPNINPTIGASFMTKTVQ: the protein stability index worked out at 1.96. For the variant FVEDSFKPNINPTIGASFMTKTVQ, the protein stability index turned out to be 2.09.

FVEDSFVPNINPTIGASFMTKTVQ: the protein stability index was 1.94. As to FVEDSFEPNINPTIGASFMTKTVQ, the protein stability index is 2.36. Consider FVEDSFIPNINPTIGASFMTKTVQ, for which the protein stability index was 2. For the variant FVEDSFRPNINPTIGASFMTKTVQ, the protein stability index was found to be 1.97. Turning to FVEDSFPPNINPTIGASFMTKTVQ, the protein stability index came out at 1.96. As for FVEDSFDPNINLTIGASFMTKTVQ, the protein stability index is 1.85. The figure for FVEDSFDPNINRTIGASFMTKTVQ is 1.81; for FVEDSFDPNINFTIGASFMTKTVQ it is 2. For the variant FVEDSFDPNINITIGASFMTKTVQ, the protein stability index turned out to be 1.82. As for FVEDSFDPNINTTIGASFMTKTVQ, the protein stability index worked out at 2.25.

Consider FVEDSFDPNINVTIGASFMTKTVQ, for which the protein stability index came to 2.18. In the case of FVEDSFDPNINATIGASFMTKTVQ, the protein stability index is 2.13. As for FVEDSFDPNINKTIGASFMTKTVQ, the protein stability index was 2.42. For FVEDSFDPNINWTIGASFMTKTVQ, the protein stability index came out at 2.08. Turning to FVEDSFDPNINDTIGASFMTKTVQ, the protein stability index is 2.49.

In the case of FVEDSFDPNINQTIGASFMTKTVQ, the protein stability index stood at 2.45. For FVEDSFDPNINYTIGASFMTKTVQ, the protein stability index was 2.37. The same measure for FVEDSFDPNINCTIGASFMTKTVQ: 2.06. The figure for FVEDSFDPNINGTIGASFMTKTVQ is 2.29. Regarding FVEDSFDPNINMTIGASFMTKTVQ, the protein stability index worked out at 1.89. The figure for FVEDSFDPNINSTIGASFMTKTVQ is 2.4. For the variant FVEDSFDPNINHTIGASFMTKTVQ, the protein stability index was 2.46. As for FVEDSFDPNINNTIGASFMTKTVQ, the protein stability index came to 2.15. With FVEDSFDPNINETIGASFMTKTVQ, the protein stability index amounted to 2.57. Take FVEDSFDPNFNPTIGASFMTKTVQ: the protein stability index was determined as 2.2. The same measure for FVEDSFDPNPNPTIGASFMTKTVQ: 2.57. On to FVEDSFDPNDNPTIGASFMTKTVQ, for which the protein stability index is 2.93. With FVEDSFDPNTNPTIGASFMTKTVQ, the protein stability index came out at 2.83. The same measure for FVEDSFDPNVNPTIGASFMTKTVQ: 2.21; for FVEDSFDPNGNPTIGASFMTKTVQ: 2.3; for FVEDSFDPNLNPTIGASFMTKTVQ: 2.14.
